From the supplement of paper PMC9112550, “Optimization of the antimicrobial peptide Bac7 by deep mutational scanning” (BMC Biology, 2022) come the findings set out here.

The data set deals with Escherichia coli TOP10. Description: shrunken log2 fold change of peptide-encoding DNA abundance (4.5 h post-induction vs induction); higher = less antimicrobial activity (less host growth inhibition). The following applies: time post-induction: 4.5 h; library: site-saturation at positions 5, 18, 19, 20.
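Further: peptides expressed intracellularly from a pBAD plasmid library in pooled LB shake-flask culture, induced with 0.3% L-arabinose, DNA abundance read by NGS, three biological replicates, DESeq2 with apeglm shrinkage.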

Take RRIRERPPRLPRPRPRPKQLPRP: the “shrunken log2 fold change” value was 0.123.
The value for RRIRFRPPRLPRPRPRPEETPRP was 0.00709; that for RRIRWRPPRLPRPRPRPKNTPRP was -0.127; that for RRIRPRPPRLPRPRPRPIYHPRP was -0.466.
To RRIRMRPPRLPRPRPRPGLYPRP belongs -0.196; to RRIRWRPPRLPRPRPRPSIVPRP, -0.00221; to RRIRERPPRLPRPRPRPQECPRP, -0.399.
As to RRIRQRPPRLPRPRPRPVLPPRP, the “shrunken log2 fold change” value is 0.0127.
Regarding RRIRKRPPRLPRPRPRPEAGPRP, the “shrunken log2 fold change” value was determined as 1.17.
To RRIRLRPPRLPRPRPRPANTPRP belongs -0.124; to RRIRQRPPRLPRPRPRPASEPRP, -0.019; to RRIRPRPPRLPRPRPRPVWGPRP, 0.0591.
The value for RRIRTRPPRLPRPRPRPIPEPRP was -0.0588; that for RRIRMRPPRLPRPRPRPDCGPRP was -0.167.
RRIRFRPPRLPRPRPRPAPPPRP: the “shrunken log2 fold change” value turned out to be 0.736.
To RRIRLRPPRLPRPRPRPWTSPRP belongs -0.384; to RRIRWRPPRLPRPRPRPPNVPRP, 0.0153.
In the case of RRIRDRPPRLPRPRPRPQLEPRP, the “shrunken log2 fold change” value was -0.0748.
Turning to RRIRRRPPRLPRPRPRPVCSPRP, the “shrunken log2 fold change” value was 0.225.
To RRIRTRPPRLPRPRPRPMGRPRP belongs 0.217; to RRIRFRPPRLPRPRPRPHIVPRP, -0.0839; to RRIRLRPPRLPRPRPRPHRIPRP, -0.0339.
Regarding RRIRGRPPRLPRPRPRPDMFPRP, the “shrunken log2 fold change” value came to 1.92.
Turning to RRIRVRPPRLPRPRPRPINVPRP, the “shrunken log2 fold change” value is -0.342.
To RRIRNRPPRLPRPRPRPNMKPRP belongs -0.48.
The value for RRIRYRPPRLPRPRPRPAVKPRP was -0.0154.
The value for RRIRARPPRLPRPRPRPWQMPRP was -0.0506; that for RRIRFRPPRLPRPRPRPWDTPRP was -0.421; that for RRIRIRPPRLPRPRPRPAQFPRP was 0.0396.
Turning to RRIRIRPPRLPRPRPRPAGNPRP, the “shrunken log2 fold change” value was -0.0516.
For RRIRGRPPRLPRPRPRPGRWPRP, the “shrunken log2 fold change” value stood at 0.716.
The value for RRIRLRPPRLPRPRPRPPISPRP was 0.0176; that for RRIRYRPPRLPRPRPRPNCRPRP was -0.134; that for RRIRQRPPRLPRPRPRPEVDPRP was 0.0316.
To RRIRNRPPRLPRPRPRPEQLPRP belongs 0.389; to RRIRVRPPRLPRPRPRPMSLPRP, 0.0447; to RRIRCRPPRLPRPRPRPFIKPRP, -0.715.
The value for RRIRFRPPRLPRPRPRPCLWPRP was -0.0174.
Take RRIRWRPPRLPRPRPRPCWTPRP: the “shrunken log2 fold change” value was determined as 0.0677.
The value for RRIRLRPPRLPRPRPRPRSRPRP was 0.394.
As for RRIRVRPPRLPRPRPRPYRVPRP, the “shrunken log2 fold change” value is -0.0295.
To RRIRSRPPRLPRPRPRPQSIPRP belongs -0.263.
The value for RRIRVRPPRLPRPRPRPYESPRP was -0.0252.
